Experimental findings from publication PMC5551564 (The Journal of Experimental Medicine, 2017) are described below.

This assay has as its target T1, human IL-17RE (Thr155-Ser451), soluble form (human, UniProt Q8NFR9 155-451).
T1 sequence (looked up): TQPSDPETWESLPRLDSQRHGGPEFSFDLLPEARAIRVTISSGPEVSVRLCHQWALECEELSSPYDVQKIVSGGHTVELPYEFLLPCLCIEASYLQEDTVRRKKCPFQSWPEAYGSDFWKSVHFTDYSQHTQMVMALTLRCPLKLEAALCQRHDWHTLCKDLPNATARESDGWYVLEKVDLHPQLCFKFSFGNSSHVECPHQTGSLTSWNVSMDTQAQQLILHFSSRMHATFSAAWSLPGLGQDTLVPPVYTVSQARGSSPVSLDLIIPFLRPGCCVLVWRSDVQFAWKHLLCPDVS
As to the kind of experiment: SEC.

B1: human IL-17c (residues His19-Val197), soluble form (ligand, UniProt Q9P0M4 19-197, looked up)
chain: HHDPSLRGHPHSHGTPHCYSAEELPLGQAPPHLLARGAKWGQALPVALVSSLEAASHRGRHERPSATTQCPVLRPEEVLEADTHQRSISPWRYRVDTDEDRYPQKLAFAECLCRGCIDARTGRETAALNSVRLLQSLLVLRRRPCSRDGSGLPTPGAFAFHTEFIHVPVGCTCVLPRSV
For the molecule B1, the binding result is reported as “binds”.
